From article doi:10.1101/2025.02.04.636414, “The mechanics of a continuous self-assembling surface-layer aids cell division in an archaeon” (bioRxiv, 2025)

Molecular target: the molecule itself
Test: cryo-EM imaging of cells; unlabelled purified S-layer proteins added to Vps4 E209Q ΔslaA cells at 75°C for 1 h; cells plunge frozen and imaged (Glacios 200 kV); S-layer lattice seen on the cell surface

B1: exogenous unlabelled S-layer protein SlaA, purified from wild-type S. acidocaldarius DSM639 (natural protein, UniProt Q4J6E5 25-1424, looked up)
chain: ITTTALTPPVSAGGIQAYLLTGSGAPASGLVLFVVNVSNIQVSSSNVTNVISTVVSNIQINAKTENAQTGATTGSVTVRFPTSGYNAYYDSVDKVVFVVVSFLYPYTTTSVNIPLSYLSKYLPGLLTAQPYDETGAQVTSVSSTPFGSLIDTSTGQQILGTNPVLTSYNSYTTQANTNMQEGVVSGTLTSFTLGGQSFSGSTVPVILYAPFIFSNSPYQAGLYNPMQVNGNLGSLSSEAYYHPVIWGRALINTTLIDTYASGSVPFTFQLNYSVPGPLTINMAQLAWIASINNLPTSFTYLSYKFSNGYESFLGIISNSTQLTAGALTINPSGNFTINGKKFYVYLLVVGSTNSTTPVEYVTKLVVEYPSSTNFLPQGVTVTTSSNKYTLPVYEIGGPAGTTITLTGNWYSTPYTVQITVGSTPTLTNYVSQILLKAVAYEGINVSTTQSPYYSTAILSTPPSEISITGSSTITAQGKLTATSASATVNLLTNATLTYENIPLTQYSFNGIIVTPGYAAINGTTAMAYVIGALYNKTSDYVLSFAGSQEPMQVMNNNLTEVTTLAPFGLTLLAPSVPATETGTSPLQLEFFTVPSTSYIALVDFGLWGNLTSVTVSAYDTVNNKLSVNLGYFYGIVIPPSISTAPYNYQNFICPNNYVTVTIYDPDAVLDPYPSGSFTTSSLPLKYGNMNITGAVIFPGSSVYNPSGVFGYSNFNKGAAVTTFTYTAQSGPFSPVALTGNTNYLSQYADNNPTDNYYFIQTVNGMPVLMGGLSIVASPVSASLPSSTSSPGFMYLLPSAAQVPSPLPGMATPNYNLNIYITYKIDGATVGNNMINGLYVASQNTLIYVVPNGSFVGSNIKLTYTTTDYAVLHYFYSTGQYKVFKTVSVPNVTANLYFPSSTTPLYQLSVPLYLSEPYYGSPLPTYIGLGTNGTSLWNSPNYVLFGVSAVQQYLGFIKSISVTLSNGTTVVIPLTTSNMQTLFPQLVGQELQACNGTFQFGISITGLEKLLNLNVQQLNNSILSVTYHDYVTGETLTATTKLVALSTLSLVAKGAGVVEFLLTAYPYTGNITFAPPWFIAENVVKQPFMTYSDLQFAKTNPSAILSLSTVNITVVGLGGKASVYYNSTSGQTVITNIYGQTVATLSGNVLPTLTELAAGNGTFTGSLQFTIVPNNTVVQIPSSLTKTSFAVYTNGSLAIVLNGKAYSLGPAGLFLLPFVTYTGSAIGANATAIITVSDGVGTSTTQVPITAENFTPIRLAPFQVPAQVPLPNAPKLKYEYNGSIVITPQQQVLKIYVTSILPYPQEFQIQAFVYEASQFNVHTGSPTAAPVYFSYSAVRAYPALGIGTSVPNLLVYVQLQGISNLPAGKYVIVLSAVPFAGGPVLSEYPAQLIFTNVTLTQ
modifications: highly glycosylated
notes: S-layer protein SlaA, Sulfolobus acidocaldarius DSM639, gene saci2355; endogenous protein extracted from the cell surface; The purified preparation also holds SlaB (mass spectrometry, Coomassie gel); also called unlabelled exogeneous S-layer proteins; purified S-layer proteins
binding result: binds
